Experiments:
TTL = molecular target: T1, TTL (Arabidopsis thaliana, UniProt Q9LVM5); assay: Yeast two-hybrid interaction with TTL; format: binding
T1 construct: full length TTL, and full-length BIN2 were cloned into the pDBLeu vector; expressed in transfected cells; host or cells: yeast strain MaV203
T1 sequence (Q9LVM5 1-324): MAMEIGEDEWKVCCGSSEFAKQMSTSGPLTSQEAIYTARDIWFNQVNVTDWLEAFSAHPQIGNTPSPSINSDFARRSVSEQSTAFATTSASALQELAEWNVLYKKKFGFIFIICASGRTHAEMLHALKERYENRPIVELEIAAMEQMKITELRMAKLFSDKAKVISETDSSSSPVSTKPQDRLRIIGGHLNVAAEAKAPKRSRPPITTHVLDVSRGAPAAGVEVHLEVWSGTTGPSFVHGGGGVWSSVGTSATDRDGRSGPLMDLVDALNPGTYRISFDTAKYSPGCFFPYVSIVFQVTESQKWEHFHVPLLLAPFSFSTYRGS
Procedure: (§2) A ProQuest Two-Hybrid system with Gateway technology (Invitrogen) was used. […] The full-length (BKI1-FL), and various truncated proteins, 1-252 (BKI1-ΔCT1), 1-299 (BKI1-ΔCT2), and 253-337 (BKI1-CT) of BKI1 were cloned into the pEXPAD502 vector. The kinase domain of NIK1 (NIK1-KD) (Fontes et al. (2004) Genes Dev. 18:2545), BAK1 (BAK1-KD), CLV1 (CLV1-KD), BRL1 (BRL1-KD), BRL3 (BRL3-KD), full length TTL, and full-length BIN2 were cloned into the pDBLeu vector. Interactions were tested on SD medium minus Leu, Trp, and His, and containing 25 mM 3-Amino-1,2,4-Triazole (3AT), using the yeast strain MaV203 according to the manufacturer's manual.

BRL1 = molecular target: T2, BRL1 (Arabidopsis thaliana, UniProt Q9ZWC8); assay: Yeast two-hybrid interaction with BRL1-KD; format: binding
T2 construct: expressed in transfected cells; host or cells: yeast strain MaV203
T2 sequence (Q9ZWC8 859-1147 limits assumed): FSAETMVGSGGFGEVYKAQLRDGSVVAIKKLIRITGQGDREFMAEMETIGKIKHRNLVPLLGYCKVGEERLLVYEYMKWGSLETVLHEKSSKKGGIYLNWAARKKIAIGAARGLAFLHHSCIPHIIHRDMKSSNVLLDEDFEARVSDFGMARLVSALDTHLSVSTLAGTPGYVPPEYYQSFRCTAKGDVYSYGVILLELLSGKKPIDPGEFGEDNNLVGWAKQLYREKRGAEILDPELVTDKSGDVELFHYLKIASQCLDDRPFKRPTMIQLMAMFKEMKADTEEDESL
Procedure: (§1) BKI1 fused with GAL4-AD (BKI1-pEXAD502) interacts with the intracellular domain of BRI1 (BRI1-KD), but not CLV1 (CLV1-KD), BRL1 (BRL1-KD), and BRL3 (BRL3-KD), fused with GAL4-DB (in pDBLeu) in yeast. pDBLeu was used as a negative control. Each spot from left to right contains 10 μl yeast cell culture with OD600=0.2, 0.04, 0.008, and 0.0016.

BRL3 = molecular target: T3, BRL3 (Arabidopsis thaliana, UniProt Q9LJF3); assay: Yeast two-hybrid interaction with BRL3-KD; format: binding
T3 construct: expressed in transfected cells; host or cells: yeast strain MaV203
T3 sequence (Q9LJF3 858-1136 limits assumed): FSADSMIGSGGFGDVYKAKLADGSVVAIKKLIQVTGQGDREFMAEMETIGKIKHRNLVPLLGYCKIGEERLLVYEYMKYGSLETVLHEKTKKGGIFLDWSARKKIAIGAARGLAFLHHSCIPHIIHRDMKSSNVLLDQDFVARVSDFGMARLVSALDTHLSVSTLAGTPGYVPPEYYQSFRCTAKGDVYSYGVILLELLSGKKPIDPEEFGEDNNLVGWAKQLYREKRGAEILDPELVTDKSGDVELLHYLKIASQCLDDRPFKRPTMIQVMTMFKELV
Procedure: as §1

NIK1 = molecular target: T4, NIK1 (Arabidopsis thaliana, UniProt Q9LFS4); assay: Yeast two-hybrid interaction with NIK1-KD; format: binding
T4 construct: The kinase domain of NIK1 (NIK1-KD) (Fontes et al. (2004) Genes Dev. 18:2545); expressed in transfected cells; host or cells: yeast strain MaV203
T4 sequence (Q9LFS4 312-593 limits assumed): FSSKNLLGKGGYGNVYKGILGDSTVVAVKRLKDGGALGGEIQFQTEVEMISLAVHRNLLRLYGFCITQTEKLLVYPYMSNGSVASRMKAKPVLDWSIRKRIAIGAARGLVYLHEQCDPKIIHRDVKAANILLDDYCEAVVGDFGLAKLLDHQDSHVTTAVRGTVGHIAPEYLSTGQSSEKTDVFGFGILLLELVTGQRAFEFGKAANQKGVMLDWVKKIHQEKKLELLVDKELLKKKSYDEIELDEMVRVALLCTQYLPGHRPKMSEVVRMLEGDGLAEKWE
Procedure: as §2

BRI1 kinase = molecular target: T5, BRI1 kinase (Arabidopsis thaliana, UniProt O22476); assay: In vitro phosphorylation of MBP-BKI1 by BRI1 kinase; format: biochemical; conditions: MBP-BKI1, BRI1-KD-HIS, 200 μM ATP; read-out: Km as substrate of BRI1 kinase in vitro
T5 construct: The intracellular domain of BRI1(BRI1-KD) was cloned into pETBlue2 (Novagen) with a C-terminal His tag; made in house; host or cells: E. coli BL21 (DE3) Codon plus RIL
T5 sequence (O22476 883-1158 limits assumed): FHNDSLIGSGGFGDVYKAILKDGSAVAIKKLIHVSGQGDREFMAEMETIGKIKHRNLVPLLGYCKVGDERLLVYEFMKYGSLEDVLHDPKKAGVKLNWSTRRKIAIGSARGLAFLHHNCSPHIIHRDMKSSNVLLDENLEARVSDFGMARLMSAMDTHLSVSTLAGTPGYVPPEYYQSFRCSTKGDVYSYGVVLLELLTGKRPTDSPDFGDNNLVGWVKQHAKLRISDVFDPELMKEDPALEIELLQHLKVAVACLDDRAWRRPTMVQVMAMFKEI
Procedure: The intracellular domain of BRI1(BRI1-KD) was cloned into pETBlue2 (Novagen) with a C-terminal His tag. BKI1 was cloned into the pMAL-2cX vector (New England Biolabs) resulting in an Nterminal maltose-binding protein (MBP) fusion. BRI1-KD-HIS and MBP-BKI1 fusion proteins were expressed in BL21 (DE3) Codon plus RIL (Stratagene) and purified with Ni-NTA agarose (Qiagen) and […] (New England Biolabs), respectively. For the phosphorylation assays, each reaction contained 50 mM HEPES [pH7.4], 10 mM MgCl2, 10 mM MnCl2, 1 mM DTT, 200 μM ATP, 1 μl (10 μCi) [γ-32P] ATP, 0.5 μl of BRI1-His, different amounts of MBP-BKI1, and double deionized H2O in a final volume of 24 μl. Reactions were terminated by addition of 8 μl of 4×SDS loading buffer. Samples were separated on a 4-20% Tris-Glycine SDS-PAGE gel (Invitrogen), which was then stained, destained, dried, and visualized and quantified using a PhosphorImager. The kinetic analysis of the phosphorylation of MBP-BKI1 by BRI1 kinase was conducted with a GraphPad Prism 4 (http://www.graphpad.com/prism/Prism.htm). […] The BKI1-FLAG protein was detected by immunoblot analysis with anti-FLAG antibody.

B1: BKI1: BRI1-interacting protein of 337 amino acids, negative regulator of brassinosteroid signaling (SEQ ID NO:1) (protein, listed as Arabidopsis thaliana)
chain: METNLQQVKNSSQTFSEKQNPKQEASPSPISSTCSSPSHDFSFTISLQPLSSSSKHISPTLRSPSKTTSSYQQTDPFAVDLSPADEIFFHGHLLPLHLLSHLPVSPRTSTGSYNDGFTLPVKDILPDQPTNNNNNTENAITNISTEAKDDNTEDKAEGEIRVKTKPIKSFSLFGLSKWRKGFESNEREQEQQQQKIKKPMSLDLSHAVKKYIRMLFQKRGNGTQFWNRRQTSSYSFSSSLMGPNGNSKTMINGSYNKRDLIRGRRGELFSAPASMRTSPTNSGHLRVSTAGLSSSSGSTSSSSSDSTMEELQAAIQAAIAHCKNSSAVDRDDKVKDS
TTL
  interaction with TTL in yeast: not
BRL1
  interaction with kinase domain of BRL1 in yeast: does not interact
BRL3
  interaction with kinase domain of BRL3 in yeast: does not interact
NIK1
  interaction with kinase domain of NIK1 in yeast: not
BRI1 kinase
  Km: ~1.55 µM

Source: US8008542B2, “Compositions, cells, and plants that include BKI1, a negative regulator of BRI1-mediated BR signaling” (The Salk Institute for Biological Studies, priority 2007, dated 2011)
